Data from PMC2173223 (The Journal of Cell Biology, 2002).

Biological target: T1, Tim13p (recombinant, co-expressed with Tim8p in E. coli) (S. cerevisiae, UniProt P53299 1-105)
T1 sequence (looked up): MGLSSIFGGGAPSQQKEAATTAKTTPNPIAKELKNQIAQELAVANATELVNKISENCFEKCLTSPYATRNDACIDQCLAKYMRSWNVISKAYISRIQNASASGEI
Experiment: quantitative amino acid analysis

stoichiometry N: 1 molar ratio
B1: Tim8p (recombinant, co-expressed with Tim13p in E. coli) (natural protein, S. cerevisiae, UniProt P57744 1-87, looked up)
chain: MSSLSTSDLASLDDTSKKEIATFLEGENSKQKVQMSIHQFTNICFKKCVESVNDSNLSSQEEQCLSNCVNRFLDTNIRIVNGLQNTR
